{BodipyFLX} = Bodipy FL-X fluorophore label on the DNA probe
Legend:
[1] = target: XIP (sigX-inducing peptide), synthetic (Streptococcus mutans); experiment: fluorescence polarisation; ComR titrated into 1 nM Bodipy FL-X-labelled PcomX stem-loop DNA probe with 10 µM XIP or ComS, 0.05 mg/ml salmon DNA, 1 mM EDTA, 37°C 20 min; together with competition by unlabeled DNA at 1.5 µM ComR; read-out is on the DNA probe, k1 and n of the ComR/peptide complex come from the fit of a two-step cooperative model
[2] = target: ComS (full-length, 17 residues), synthetic (Streptococcus mutans); experiment: as above
ComR = experiment: Fluorescence polarization competition assay with unlabeled DNA probes; format: binding; details: 1.5 µM ComR, 10 µM ComS or XIP, 1 nM labeled PcomX DNA; PcomS vs PcomX
Method: FIG 5 ComS and XIP interact with ComR to bind the comX promoter. A fluorescence polarization assay testing interaction of ComS and XIP peptides with ComR and the PcomX transcriptional activation site was performed. The DNA probe was labeled with a Bodipy FL-X fluorophore. (A) Titration of ComR into a solution containing 10 µM XIP (blue) or full-length ComS (green), labeled DNA probe (1 nM), and 0.05 mg ml^−^1 salmon DNA. The negative control (black) contained no ComS or XIP peptide. (B) Competition assay in which unlabeled promoter sequence DNA was titrated into a solution containing ComR (1.5 µM), fluorescent DNA probe (1 nM), and peptide (either ComS or XIP, 10 µM). Unlabeled PcomX DNA was used with XIP (blue) and ComS (green). An unlabeled PcomS probe was also tested for its ability to compete with the fluorescent PcomX probe in the presence of XIP (red) and ComS (gold). […]
Competing unlabeled probe assays were performed with 1.5 µM ComR in the same buffer containing 1 nM PcomX fluorescent DNA and 10 µM SHP (either ComS or XIP). […] Reaction mixtures were again incubated at 37°C for 20 min before polarization readings were taken. In all FP experiments, reading was performed three times on the same plate to estimate instrument error. […]

[3] = target: ComR;XIP (Streptococcus mutans UA159;Streptococcus mutans) (UniProt Q8DWI6); experiment: fluorescence polarization; details: Previously described reaction buffer (ref 53; composition not given) + 1 mM EDTA, 0.05 mg/ml salmon DNA, 1 nM probe, 37 C, 20 min; ComR dialyzed into PBS pH …
ComR;ComS [4] = target: T1, ComR;ComS (Streptococcus mutans …, UniProt Q8DWI6; 1-304;, |); experiment: competition (fluorescence polarization); 1.5 uM ComR, 10 uM ComS, 1 nM labeled PcomX; affinity appears identical to PcomX; Previously described reaction buffer (ref 53; composition not given) + 1 mM EDTA, 0.05 mg/ml salmon DNA, 1 nM probe, 37 C, 20 min; ComR dialyzed into PBS pH 7.4; details: tags: His6 tag (pET-45b(+), N-terminal) cleaved with EKMax;; chain copies: 2;2; hairpin, 20 bp stem, CCCCC loop
ComR;ComS [5] = target: T1, ComR;ComS; experiment: fluorescence polarization; 10 uM ComS; k2 of two-step model (k1 = 3.2 uM, n = 2.5), global fit with competition; not precisely determined, Text S3 gives k2 range 30-200 nM; Previously described reaction buffer (ref 53; composition not given) + 1 mM EDTA, 0.05 mg/ml salmon DNA, 1 nM probe, 37 C, 20 min; ComR dialyzed into PBS pH 7.4; details: tags: His6 tag (pET-45b(+), N-terminal) cleaved with EKMax;; chain copies: 2;2; label: 5' Bodipy FL-X; hairpin, 20 bp stem, CCCCC loop

ComR (native, histidine tag cleaved) (receptor)
Kd [1]: 7.3 µM
n (order of multimerization of the ComR/peptide complex, two-step model) [1]: 2.4
Kd [2]: 3.2 µM
n (order of multimerization of the ComR/peptide complex, two-step model) [2]: 2.5

PcomX: self-annealing stem-loop DNA, 5′-ATGGGACATTTATGTCCTGTCCCCCACAGGACATAAATGTCCCAT-3′ (5′-Bodipy FL-X in labeled probe) (DNA, 5' {BodipyFLX}, backbone and methylation of C not given here)
affinity of unlabeled probe for ComR by competition (ComR): appear to have identical levels of affinity for ComR

ATGGGACATTTATGTCCTGTCCCCCACAGGACATAAATGTCCCAT [PcomX stem-loop probe]
Kd [3]: 0.033 µM

ACGGGACATAAATGTCCTGTCCCCCACAGGACATTTATGTCCCGT (structured_DNA) [PcomS stem-loop, unlabeled]
binding result (ComR;ComS [4]): binds

ATGGGACATTTATGTCCTGTCCCCCACAGGACATAAATGTCCCAT (structured_DNA) [PcomX stem-loop probe]
Kd (ComR;ComS [5]): 0.0022 µM
